In patent US20150147767A1 one finds % inhibition, % of positive cells and % of positive cells, FITC-BSA subtracted data, which are given here for 8 molecules.

For assay [1], the target named is FITC-conjugated BAG3 recombinant protein (human) (UniProt O95817). Description: flow cytometry, blocking of 14 nM FITC-rBAG3 binding to J774 A1 cells by 420 nM F(ab′)2; negative control. For orientation: A flow cytometer gives signals particle by particle.
The target in assay [2] is surface of J774 A1 macrophages (BAG3 binding partner not identified) (murine). Kind of assay: flow cytometry on J774 A1 cells.
Assay [3] has the same target. Description: flow cytometry on J774 A1 cells, 14 nM FITC-rBAG3.
Assay [4] has the same target. Kind of assay: flow cytometry on J774 A1 cells, negative control.
Assay [5] shares this target. Description: flow cytometry competition on J774 A1 cells; 625 nM peptide, 14 nM FITC-rBAG3 as competitor.

Sequence of UniProt O95817 (O95817 whole entry): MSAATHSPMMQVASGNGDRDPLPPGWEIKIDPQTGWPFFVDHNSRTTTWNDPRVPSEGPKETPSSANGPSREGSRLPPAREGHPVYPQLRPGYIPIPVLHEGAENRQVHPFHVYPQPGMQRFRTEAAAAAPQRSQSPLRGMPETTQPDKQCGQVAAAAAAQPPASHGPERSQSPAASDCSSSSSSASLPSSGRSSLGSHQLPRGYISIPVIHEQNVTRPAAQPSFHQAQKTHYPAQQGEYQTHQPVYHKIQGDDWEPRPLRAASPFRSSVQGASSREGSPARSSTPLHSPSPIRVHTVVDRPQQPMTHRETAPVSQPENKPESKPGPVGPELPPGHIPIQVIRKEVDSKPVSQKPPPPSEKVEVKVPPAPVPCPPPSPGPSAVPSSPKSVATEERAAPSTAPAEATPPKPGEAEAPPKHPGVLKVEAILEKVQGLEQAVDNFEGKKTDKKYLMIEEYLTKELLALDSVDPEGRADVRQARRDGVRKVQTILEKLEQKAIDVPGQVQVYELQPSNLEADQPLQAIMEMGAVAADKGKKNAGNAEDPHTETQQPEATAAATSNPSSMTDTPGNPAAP

Consider “F(ab′)2 fragments from mouse IgG (antibody)”, for which, in assay [1], the % inhibition – broadly, the relative decrease from the control value, in per cent – amounted to 0% and the % of positive cells is 12.3%. In assay [2], “FITC-conjugated BAG3 recombinant protein (from UniProt O95817 1-575)” gave a % of positive cells, FITC-BSA subtracted of 11.1%. The molecule also yielded a % of positive cells in assay [3] of 15.7%. In assay [4], “FITC-conjugated BSA (albumin from bovine serum) (from UniProt P02769 25-607)” registered a % of positive cells of 4.04%.

On to “F(ab′)2 fragments from rabbit IgG (antibody)”, for which, in assay [1], the % inhibition came to 0% and the % of positive cells turned out to be 14.7%. As to DKGKKNAGNAEDPHT [BAG3 peptide 3], in assay [5], the % inhibition stood at 47.2% and the % of positive cells was determined as 5.86%. In assay [5], NPSSMTDTPGNPAAP [BAG3 peptide 4] displayed a % inhibition of 93.8% and a % of positive cells of 0.68%.

In assay [5], DRDPLPPGWEIKIDPQ [BAG3 peptide 1] showed a % inhibition of 98.4% and a % of positive cells of 0.18%. For SSPKSVATEERAAPS [BAG3 peptide 2], in assay [5], the % inhibition amounted to 89.1% and the % of positive cells was 1.21%.
